Measured values as given in US20220127355A1 (INTEGRAL MOLECULAR, published 2022).

Legend:
Claudin 6 (human) = target: T1, Claudin 6 (human) (human, UniProt P56747 1-220); assay: flow cytometry, PA-1 cells naturally expressing Claudin-6
T1 construct: Expressed on transfected HEK-293T cells or naturally on PA-1 cells for flow cytometry; For the Octet KD values it was the intact protein embedded in virus-like particles (lipoparticles); also called hsCLDN6; CLDN6
T1 chain: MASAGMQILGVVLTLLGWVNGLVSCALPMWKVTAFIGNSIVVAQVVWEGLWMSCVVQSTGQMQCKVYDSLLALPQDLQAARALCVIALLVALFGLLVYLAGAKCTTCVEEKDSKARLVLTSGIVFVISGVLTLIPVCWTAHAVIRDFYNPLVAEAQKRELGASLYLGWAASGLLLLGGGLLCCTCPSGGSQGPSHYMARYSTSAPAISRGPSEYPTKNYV

Claudin 9 [1] = target: T2, Claudin 9 (UniProt O95484 1-217); assay: biosensor (Forte Octet), intact claudin in virus-like particles (lipoparticles)
T2 construct: Octet KD values: intact claudin protein embedded in virus-like particles (lipoparticles); also called CLDN9
T2 sequence (looked up): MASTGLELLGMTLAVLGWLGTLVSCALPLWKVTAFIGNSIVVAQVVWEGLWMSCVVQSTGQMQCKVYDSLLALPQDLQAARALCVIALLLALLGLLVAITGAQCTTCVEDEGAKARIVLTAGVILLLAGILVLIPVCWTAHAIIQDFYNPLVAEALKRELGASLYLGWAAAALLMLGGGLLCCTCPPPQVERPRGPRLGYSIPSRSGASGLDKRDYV
Method: Affinity of various antibodies against CLDN6 as compared to CLDN9, CLDN3, and CLDN4 was measured using a biosensor. Biosensor affinity measurement of the various antibodies against the proteins was determined using a Forte Octet, which was used for biosensor measurements, using intact claudin proteins embedded in virus-like particles (lipoparticles). The KD for different antibodies is shown below.

Claudin 4 = target: T3, Claudin 4 (UniProt O14493 1-209); assay: flow cytometry, HEK-293T cells transiently transfected with the indicated claudin; pUC19 = empty vector control
T3 construct: also called CLDN4
T3 sequence (looked up): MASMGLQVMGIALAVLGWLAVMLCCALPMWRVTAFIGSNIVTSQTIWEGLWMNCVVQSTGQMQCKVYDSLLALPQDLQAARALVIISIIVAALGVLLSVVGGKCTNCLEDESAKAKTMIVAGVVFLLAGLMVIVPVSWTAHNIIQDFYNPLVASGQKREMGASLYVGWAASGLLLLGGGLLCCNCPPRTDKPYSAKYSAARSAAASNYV
Method: (§1) FIG. 2 illustrates the results of a binding assay showing that Claudin 6 MAbs bind to human Claudin 6 preferentially over other Claudin proteins. Human embryonic kidney 293T (HEK-293T) cells were transiently transfected with DNA for the indicated Claudin protein or empty vector along with GFP (pUC) for 22 hours.

Claudin 9 [2] = target: T2, Claudin 9; assay: as above
Method: as §1

B1: IM171 (antibody, V domains shown)
VH: AVTLDESGGGLQTPGGALSLVCKASGFDFSSYAMNWVRQAPGKGLEWVAGIGSTGSSTGYGPAVKGRATISRDNGQSTLRLQLNNLRAEDTAIYYCAKSVGNGNSWSGYIATSIDAWGHGTEVIVSS
VL: ALTQPSSVSANLGGTVKLTCSGGSSGYGWYQQKSPGSAPVTVIYSNDKRPSDIPSRFSGSLSGSTGTLTITGVQADDEAVYFCGSTDNSYVGIFGAGTTLTVL
notes: Detected with anti-human IgG Fc secondary; also called LM171
B1 was tested, and the “EC50 (read off the curve)” value (Claudin 6 (human)) was roughly 2 µg/mL, the Kd (Claudin 9 [1]) was 902 nM and the binding result (Claudin 4) was “no binding (tested: log [mAb] about -7.2 M)”.

B2: IM173 (antibody, V domains shown)
VH: AVTLDESGGGLQTPGGALSLVCKASGFTFSSYSMFWVRRAPGKGLEWVAGIDSGSTTFYGSAVKGRATISRDNGQSTVRLQLNNLRAEDTATYYCAKDAYGYCGWSGCSADSIDAWGHGTEVIVSS
VL: ALTQPSSVSANPGGTVEITCSGGNNYYGWYQQKSPGSAPVTVIYYNDKRPSDIPSRFSGSKSGSTGTLTITGVQADDEAVYFCGGWDSSGGIFGAGTTLTVL
notes: Detected with anti-human IgG Fc secondary
B2: no binding (tested: log [mAb] about -7.2 M) (Claudin 9 [2]).
